Data on 26 sequences can be found in the supplement of paper PMC9170038.

The subject of the data set is MS2 coat protein. Nature of the data set: apparent KD of MS2 coat protein; higher = weaker reporter binding. Particulars: Eterna round: R107. As to the method: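 RNA-MaP round R107: designed RNA switches with theophylline, tryptophan, arginine or FMN aptamers are transcribed on-chip within common flanks. They are titrated with SNAP-549-labelled MS2 coat protein in RNA-MaP buffer (100 mM Tris pH 7.5, 80 mM KCl, 4 mM MgCl2), without ligand or with the indicated ligand. Median apparent KD per design.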

Setting [1] is: input ligand: theophylline 20 uM.
[2] abbreviates: input ligand: theophylline 2 mM.
The mark [3] stands for this setting: input ligand: tryptophan 2.4 mM.

As for “AAAUAAACAUCGGCCGCCACUUACUCAUGAGGUAACAACAUGAGGAUCACCCAUGUUUGAGGAUCAAGGACCGGGAUGUAAUAAA [AstrosSSTryB#1]”, the “apparent KD of MS2 coat protein” value is, setting by setting: (input ligand: arginine 13.2 mM) 0.0231 µM; (input ligand: none) 0.0273 µM; under setting [1], 0.0336 µM; under setting [2], 0.0329 µM; under setting [3], 0.0196 µM.

On to “AAAUAAAUCACAUGAGGAUCACCCAUGGAUACCAGGCCUGGAAACAGCCCUUGGCAGCCACAUGAGGAUCACCCAUGUGCUAAAU [MAT - Exclusion Theophlline A - Mod of Eli - D2]”, for which the “apparent KD of MS2 coat protein” value (input ligand: arginine 13.2 mM) turned out to be 0.0984 µM, the “apparent KD of MS2 coat protein” value under setting [1] was 0.207 µM and the “apparent KD of MS2 coat protein” value under setting [3] was found to be 0.14 µM.

Turning to “AAAUACAUGAGGAUCACCCAUGUCAAUAAUCGAGGACCGGUACGGCCGCCACUCGAUCGGCCAAGAAAAUGAAAGAUGAUCUCUA [theeternabot_sameState_MS2_Trp_A_8]”, the “apparent KD of MS2 coat protein” value reads like this: (input ligand: arginine 13.2 mM) 0.0181 µM; under setting [1], 0.0375 µM; under setting [2], 0.0274 µM.

Regarding “AACAAUGCACAUGAGGAUCACCCAUGUGAUACCAGCCGCAACAUAGGCCCUUGGCAGCAUGUGGGUAUAGAACGAUUUGGCUGAA [Xeanle]”, the “apparent KD of MS2 coat protein” value runs as follows: (input ligand: arginine 13.2 mM) 0.0244 µM; under setting [1], 0.0853 µM; under setting [3], 0.0417 µM.

With “AACAGGGCUCGCACGAAGCCCUAAGGUGAUACCAGCACAUGUAAGUGCCCUUGGCAGCACGGUACAUGAGGAUCACCCAUGUAGA [Isleenen]”, the “apparent KD of MS2 coat protein” value is, setting by setting: (input ligand: arginine 13.2 mM) 0.0197 µM; under setting [1], 0.182 µM; under setting [3], 0.0594 µM.

With “AACAUACAAUUUUAGGUGGAUAUAAGGCGGCGAGGACCGGUACGGCCGCCACUCGCGUACAUGAGGAUCACCCAUGUCUGAAGCU [Same State - Tryptophan A (Freestyle 6)]”, the “apparent KD of MS2 coat protein” value is 0.0128 µM (input ligand: arginine 13.2 mM); 0.0217 µM (input ligand: none); 0.0217 µM under setting [1]; 0.0273 µM under setting [2]; 0.0214 µM under setting [3].

Take “AACAUACAUGAGGAUCACCCAUGUCACGAUACCAGAUACAUGAGGAUCCCUUGGCAGCGUCAUGAGGAUCACCCAUGUUGUACAU [Exclusion Theophylline A 2]”: the “apparent KD of MS2 coat protein” value came to 0.0203 µM (input ligand: arginine 13.2 mM), 0.0227 µM under setting [1] and 0.0177 µM under setting [3].

Consider “AACAUGAGGAUCACCCAUGUCCUCGUGAUUCGAGGACCGGUACGGCCGCCACUCGGUCCUCGCGAGGUGGAGUCAAAGACUCCAA [Omei Trp A SS A v3]”, for which the “apparent KD of MS2 coat protein” value is, setting by setting: (input ligand: arginine 13.2 mM) 0.0723 µM; (input ligand: none) 0.384 µM; under setting [1], 0.487 µM; under setting [2], 0.425 µM; under setting [3], 0.327 µM.

For the sequence “AACAUGAGGAUCACCCAUGUGUCCCUUGAUACCAGUCCCAUGUGAGACCCUUGGCAGCAAACAUGAGGAUCACCCAUGUCCCAUG [Same State Theophylline A 3]”, the “apparent KD of MS2 coat protein” value (input ligand: arginine 13.2 mM) was determined as 0.0609 µM, the “apparent KD of MS2 coat protein” value under setting [1] was 0.119 µM and the “apparent KD of MS2 coat protein” value under setting [3] came to 0.0902 µM.

Regarding “AACGCGGUGAUGGUAGCCGGACGCUAGGUACGAGGACCGGUACGGCCGCCACUCGGAGUCCUACGACAUGAGGAUCACCCAUGUA [Same State Trp A GF15]”, the “apparent KD of MS2 coat protein” value (input ligand: arginine 13.2 mM) came out at 0.0539 µM, the “apparent KD of MS2 coat protein” value under setting [1] amounted to 0.14 µM and the “apparent KD of MS2 coat protein” value under setting [2] was 0.145 µM.

As for “AACGUAUACAGAAGGAGCGUGAAUUAUUUUAUUUUUUUAUAAACAUGAGGAUCACCCAUGUCACAGGUAGGUCGCUGUAUUCGUA [JR_ExcArginiB_Sub018]”, the “apparent KD of MS2 coat protein” value is, setting by setting: (input ligand: arginine 13.2 mM) 0.0238 µM; (input ligand: none) 0.0184 µM; under setting [1], 0.0405 µM; under setting [2], 0.0228 µM; under setting [3], 0.0192 µM.

“AACUAAUCACAUGAGGAUCACCCAUGUGAUACCAGCUAAUCCCAAAGCCCUUGGCAGCACCUUUGGGUCCCGGUGUGUUUGAACA [Onceesa]”: the “apparent KD of MS2 coat protein” value reads like this: (input ligand: arginine 13.2 mM) 0.00942 µM; under setting [1], 0.0123 µM; under setting [3], 0.00933 µM.

For the sequence “AAGCAGGGUGUAAAAUAAAUAAUCACUGAUACCAGACUAUGAGAUGUCCCUUGGCAGCAGAAACAUGAGGAUCACCCAUGUAAUA [JR_Nu_ExcTheophyA_Sub029]”, the “apparent KD of MS2 coat protein” value is 0.0211 µM (input ligand: arginine 13.2 mM), 0.0284 µM under setting [1] and 0.0273 µM under setting [3].

For “AAGCUGACAAGAAGGUGUUCCUAAGCUGAUACCAGCCUGGAAACAGGCCCUUGGCAGCAGCACAUGAGGAUCACCCAUGUAAUAA [(T)'-(M)'-(T1)-(T2)-(M1)-(M2)_Design2(Mismatches)]”, the “apparent KD of MS2 coat protein” value reads like this: (input ligand: arginine 13.2 mM) 0.101 µM; under setting [1], 0.172 µM; under setting [3], 0.115 µM.

“AAGUGGCACGGAAGGAGCGAGUUUGCCUAUUACAUGAGGAUCACCCAUGUGGGUAAUGGGACUCAGGUAGGUCGCCGUUGUCACU [Same State Arginine B GF 26]”: the “apparent KD of MS2 coat protein” value runs as follows: (input ligand: arginine 13.2 mM) 0.0295 µM; (input ligand: none) 0.0568 µM; under setting [1], 0.0485 µM; under setting [2], 0.042 µM; under setting [3], 0.0463 µM.

Regarding “AAUAAACAUGAGGAUCACCCAUGUAGGGUGCGAGGACCGGUACGGCCGCCACUCGGGUGAAAACAUGAAAAUCACCCAUGUAAAA [Mat - Exclusion - Trytophan A - D24]”, the “apparent KD of MS2 coat protein” value (input ligand: arginine 13.2 mM) is 0.113 µM; the “apparent KD of MS2 coat protein” value (input ligand: none) was determined as 0.125 µM; the “apparent KD of MS2 coat protein” value under setting [1] amounted to 0.192 µM; the “apparent KD of MS2 coat protein” value under setting [2] turned out to be 0.206 µM; the “apparent KD of MS2 coat protein” value under setting [3] was 0.232 µM.

Regarding “AAUAACAUGAGGAUCACCCAUGUAAAAGAUACCAGAGUGAUGAUCCUCCCUUGGCAGCUUAACGCUGAUUGGAAACAAUCAGCGA [Mat - Same State Theophlline A - Mod of Eli - D1]”, the “apparent KD of MS2 coat protein” value runs as follows: (input ligand: arginine 13.2 mM) 0.0341 µM; under setting [1], 0.268 µM; under setting [3], 0.0676 µM.

As to “AAUAACAUGAGGAUCACCCAUGUAAGUAAACGAGGACCGGUACGGCCGCCACUCGAAUAAAUAAAGUACCGGUAAGAUCCAGGGA [Default title]”, the “apparent KD of MS2 coat protein” value runs as follows: (input ligand: arginine 13.2 mM) 0.0146 µM; under setting [1], 0.019 µM; under setting [2], 0.0154 µM.

On to “AAUAACAUGAGGAUCACCCAUGUAAGUGGGCGAGGACCGGUACGGCCGCCACUCGGAUGAUGUUGACGAAAAGUCAGCAUCAUCA [#OpenEnded 2 #GuTurnoff #Tail]”, for which the “apparent KD of MS2 coat protein” value (input ligand: arginine 13.2 mM) worked out at 0.0259 µM; the “apparent KD of MS2 coat protein” value (input ligand: none) came out at 0.0247 µM; the “apparent KD of MS2 coat protein” value under setting [1] was found to be 0.0313 µM; the “apparent KD of MS2 coat protein” value under setting [2] was 0.0341 µM; the “apparent KD of MS2 coat protein” value under setting [3] amounted to 0.0551 µM.

“AAUAAUAAGGCGGCCGCCACUAAACAUGAGGAUCACCCAUGUCUCGAGCGCAUGCAUAAGGGAUGUAGGACCGGGCCAAUAAUAA [Exclusion - Tryptophan B (Freestyle 2)]”: the “apparent KD of MS2 coat protein” value is 0.022 µM (input ligand: arginine 13.2 mM); 0.0297 µM (input ligand: none); 0.0326 µM under setting [1]; 0.0279 µM under setting [2]; 0.0236 µM under setting [3].

Turning to “AAUAAUAGGUGAUCCUAACGAGUGGCAUAACGAGGACCGGUACGGCCGCCACUCGAACAUGAGGAUCACCCAUGUAGUCACUCGA [M'-T'-T-MS2-T'' - Design 5]”, the “apparent KD of MS2 coat protein” value by setting is: (input ligand: arginine 13.2 mM) 0.0829 µM; under setting [1], 0.28 µM; under setting [2], 0.751 µM.

Turning to “AAUAAUAGGUGAUCUUGAGUCGUACCGUAACGAGGACCGGUACGGCCGCCACUCGAACAUGAGGAUCACCCAUGUAUGUAUGAUA [whbob_SS_trypto A_f6]”, the “apparent KD of MS2 coat protein” value (input ligand: arginine 13.2 mM) is 0.0486 µM, the “apparent KD of MS2 coat protein” value under setting [1] came to 0.128 µM and the “apparent KD of MS2 coat protein” value under setting [2] turned out to be 0.276 µM.

Turning to “AAUAUUAUGUCGGCCGCCACUUCCCACAAGAGGUGCCUGCACCCACAUGAGGAUCACCCAUGUCGAAGGACCGGGACGCUCAAUU [theeternabot_sameState_MS2_Trp_B_35]”, the “apparent KD of MS2 coat protein” value by setting is: (input ligand: arginine 13.2 mM) 0.0205 µM; under setting [1], 0.0236 µM; under setting [2], 0.0216 µM.

Consider “AAUCAUGGAAACAUGACAUGAGGGUUGCUCCGAGGACCGGUACGGCCGCCACUCGCGAGGAGGCGGACAUGAGGAUCACCCAUGU [#05 Tryptophan A Same State]”, for which the “apparent KD of MS2 coat protein” value (input ligand: arginine 13.2 mM) came out at 0.0403 µM; the “apparent KD of MS2 coat protein” value (input ligand: none) stood at 0.252 µM; the “apparent KD of MS2 coat protein” value under setting [1] was found to be 0.28 µM; the “apparent KD of MS2 coat protein” value under setting [2] was 0.328 µM; the “apparent KD of MS2 coat protein” value under setting [3] worked out at 0.0682 µM.

As for “AAUGGUGGAACGAAGUACAGGAGUACAAAUCGAGGACCGGUACGGCCGCCACUCGCGAAAGAACAUGAGGAUCACCCAUGUAAAA [theeternabot_exclusion_MS2_Trp_A_34]”, the “apparent KD of MS2 coat protein” value amounted to 0.0121 µM (input ligand: arginine 13.2 mM); 0.00809 µM (input ligand: none); 0.0218 µM under setting [1]; 0.177 µM under setting [2]; 0.0111 µM under setting [3].

Take “AAUUAUUACGGAAGGAGCGUCUUUCGGCUCAAACAUGAGGAUCACCCAUGUGAUUUUGAAUGACAGGUAGGUCGCCGAUAUUUGA [JR_AAArginiB_Sub030]”: the “apparent KD of MS2 coat protein” value reads like this: (input ligand: arginine 13.2 mM) 0.0244 µM; (input ligand: none) 0.0264 µM; under setting [1], 0.0415 µM; under setting [2], 0.0321 µM; under setting [3], 0.0252 µM.
